The test deals with endogenous gelsolin (mouse (endogenous in osteoclasts)) (UniProt P13020). Put plainly: co-IP.

The source of these data is paper PMC441372.

endogenous gelsolin (mouse (endogenous in osteoclasts)), sequence (P13020 26-780): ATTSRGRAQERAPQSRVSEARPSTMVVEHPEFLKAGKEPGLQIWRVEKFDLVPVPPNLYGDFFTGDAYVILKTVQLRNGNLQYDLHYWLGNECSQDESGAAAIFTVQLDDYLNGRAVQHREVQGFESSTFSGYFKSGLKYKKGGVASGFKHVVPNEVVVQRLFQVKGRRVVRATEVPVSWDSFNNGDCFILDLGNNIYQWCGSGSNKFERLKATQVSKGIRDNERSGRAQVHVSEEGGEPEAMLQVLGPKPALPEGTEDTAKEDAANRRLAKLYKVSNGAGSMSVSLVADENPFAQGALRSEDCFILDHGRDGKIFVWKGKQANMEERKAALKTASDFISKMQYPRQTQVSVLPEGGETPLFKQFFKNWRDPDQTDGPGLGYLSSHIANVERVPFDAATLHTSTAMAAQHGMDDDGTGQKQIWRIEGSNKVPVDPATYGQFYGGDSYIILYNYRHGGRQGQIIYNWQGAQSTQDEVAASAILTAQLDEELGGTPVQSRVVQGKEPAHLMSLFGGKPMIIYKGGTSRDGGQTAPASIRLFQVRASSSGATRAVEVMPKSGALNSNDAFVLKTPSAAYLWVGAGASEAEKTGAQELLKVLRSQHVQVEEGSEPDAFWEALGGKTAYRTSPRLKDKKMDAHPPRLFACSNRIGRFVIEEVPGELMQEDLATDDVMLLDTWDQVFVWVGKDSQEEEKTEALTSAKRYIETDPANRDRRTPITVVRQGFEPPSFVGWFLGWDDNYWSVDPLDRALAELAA

On to “actin (from UniProt P60710 1-375) (natural protein)”, for which the gelsolin/actin ratio of the EGTA-resistant complex (untransduced, OPN) came to 0.82 and the gelsolin/actin ratio of the EGTA-resistant complex (untransduced, PBS) was 1.45.
